Measurements from the supplement of paper PMC7125110.
± gives the standard error. Variants at the floor of the assay were thinned out.

B1: glmS ribozyme (parent)
chain: AUAAAAGCGCCAGAACUACAGAAAUGUAGUUGACGAGGAGGAGGUUUAUCGAAUUUUCGGCGGAUGCCUCCAAA

How the values were obtained:
Details in all cases: with glucosamine-6-phosphate
glucosamine-6-phosphate [1] = variants of: B1; assay: self-cleavage kobs at 40 uM GlcN6P; higher = faster cleavage; RNA array
In short: (§1)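 Weighted Michaelis–Menten fits across concentrations supplied kcat and KM, based on kobs from one- or two-exponential decay fits to normalised per-tile medians. The data came from barcoded ribozyme variants transcribed in situ by E. coli RNA polymerase on sequenced MiSeq chips and tracked at 37 °C by a hybridised Cy3 probe. Glucosamine-6-phosphate (40 μM to 10 mM) in HEPES/KCl/Mg(OAc)2 buffer was flowed in.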

glucosamine-6-phosphate [2] = variants of: B1; assay: self-cleavage kobs at 10000 uM GlcN6P; higher = faster cleavage; RNA array
In short: as §1

glucosamine-6-phosphate [3] = variants of: B1; assay: self-cleavage kobs at 640 uM GlcN6P; higher = faster cleavage; RNA array
In short: as §1

glucosamine-6-phosphate [4] = variants of: B1; assay: self-cleavage kobs at 2500 uM GlcN6P; higher = faster cleavage; RNA array
In short: as §1

glucosamine-6-phosphate [5] = variants of: B1; assay: self-cleavage kobs at 160 uM GlcN6P; higher = faster cleavage; RNA array
In short: as §1

Variant | self-cleavage kobs at 40 uM GlcN6P (glucosamine-6-phosphate [1]) [s⁻¹] | self-cleavage kobs at 10000 uM GlcN6P (glucosamine-6-phosphate [2]) [s⁻¹] | self-cleavage kobs at 640 uM GlcN6P (glucosamine-6-phosphate [3]) [s⁻¹] | self-cleavage kobs at 2500 uM GlcN6P (glucosamine-6-phosphate [4]) [s⁻¹] | self-cleavage kobs at 160 uM GlcN6P (glucosamine-6-phosphate [5]) [s⁻¹]
A53C U57C C67G | < 1e-05 | < 1e-05 | – | – | –
G9A G60A | < 1e-05 | – | < 1e-05 | – | –
C61U G62C | < 1e-05 | < 1e-05 | < 1e-05 | < 1e-05 | –
A48C G51U C67U | < 1e-05 | < 1e-05 | – | – | –
G9U A36C G38C | < 1e-05 | < 1e-05 | – | – | –
A33G C68U | < 1e-05 | < 1e-05 | – | – | –
A15C C16A U31G A36G A39G A42C | < 1e-05 | – | – | < 1e-05 | –
C10G U56G C68A | < 1e-05 | – | – | – | –
C11G A39G U45C G60A G66U | < 1e-05 | – | – | – | –
U30A A39U G62U | < 1e-05 | – | – | – | –
C10A U31G A48G C67G | < 1e-05 | < 1e-05 | – | – | –
C10U G32A G43A C71A | < 1e-05 | – | – | – | –
C8U G38C G44U A48C | < 1e-05 | – | – | – | –
G9U G62C | < 1e-05 | < 1e-05 | – | – | < 1e-05
G38U U45C | < 1e-05 | < 1e-05 | < 1e-05 | < 1e-05 | < 1e-05
A15C G43U U54C | < 1e-05 | < 1e-05 | – | – | –
C11U A14G G40U A42C | < 1e-05 | < 1e-05 | – | – | –
G37A G38A G41A | < 1e-05 | < 1e-05 | – | – | –
U47C U49A U54G C68A | < 1e-05 | < 1e-05 | – | – | –
G32A C50G G60A C68G | 6.94e-05 ± 1.7e-05 | 5.25e-05 ± 1.1e-05 | – | – | –
A15U G35U | < 1e-05 | < 1e-05 | < 1e-05 | < 1e-05 | < 1e-05
A6C U57G | < 1e-05 | – | < 1e-05 | – | –
G9U C16A | < 1e-05 | < 1e-05 | < 1e-05 | < 1e-05 | < 1e-05
A39U U55C | 0.000475 ± 4.6e-05 | 0.0244 ± 0.0038 | 0.00443 ± 0.00071 | 0.00902 ± 0.002 | 0.00102 ± 0.00013
G9C G41U C50A | < 1e-05 | – | – | – | –
C11A U31A A39G U55C G66U | < 1e-05 | < 1e-05 | – | – | < 1e-05
C8U U69G | 0.000157 ± 3.4e-05 | 0.000167 ± 3.1e-05 | 0.00216 ± 0.00095 | – | –
